The values below come from article PMC11187062.

In experiment [1] the target is human UHRF1 PHD finger, residues 299-366, D334A/D337A (human) (UniProt Q96T88). The experiment in a line: ITC; Microcal PEAQ-ITC, 293 K, 10 mM HEPES pH 7.5, 150 mM NaCl, 0.25 mM TCEP, one-site model; which partner was titrated is not stated; single titrations and their means. In general terms: Isothermal titration calorimetry measures the heat released or taken up as one component is titrated into another.

The target in experiment [2] is UHRF1 PHD finger PHD (Homo sapiens) (UniProt Q96T88). The conditions noted are these: cited from earlier work.
Experiment [3] has the same target. The conditions noted are these: cited from earlier work. The source holds these as a separate data set.
Experiment [4] has as its target UHRF1 PHD finger PHD (Mus musculus) (UniProt Q8VDF2). The conditions noted are these: cited from earlier work.
Experiment [5] shares this target. The conditions noted are these: cited from earlier work. The source holds these as a separate data set.
In another experiment the target is hPHD D334A/D337A (human) (UniProt Q96T88). Kind of experiment: ITC; Microcal PEAQ-ITC, 293 K, 10 mM HEPES pH 7.5, 150 mM NaCl, 0.25 mM TCEP; one-site model; at least three independent titrations.

“And” between values parts separate entries of the source, which are not always exact repeats. Identical values can stand only once. Like-named read-outs stand apart in the source and are kept apart here.

Sequence of human UHRF1 PHD finger, residues 299-366, D334A/D337A (human) (Q96T88 299-366 D334A/D337A): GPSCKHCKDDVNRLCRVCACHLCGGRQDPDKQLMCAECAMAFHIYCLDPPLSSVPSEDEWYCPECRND
Sequence of UHRF1 PHD finger PHD (Mus musculus) (Q8VDF2 301-374): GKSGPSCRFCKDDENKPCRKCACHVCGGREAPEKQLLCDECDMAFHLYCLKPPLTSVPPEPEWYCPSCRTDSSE
Sequence of UHRF1 PHD finger PHD (Homo sapiens) (Q96T88 307-369): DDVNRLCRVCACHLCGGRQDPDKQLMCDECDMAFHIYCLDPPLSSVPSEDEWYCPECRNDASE
Sequence of DPPA3 (Q8QZY3 whole entry): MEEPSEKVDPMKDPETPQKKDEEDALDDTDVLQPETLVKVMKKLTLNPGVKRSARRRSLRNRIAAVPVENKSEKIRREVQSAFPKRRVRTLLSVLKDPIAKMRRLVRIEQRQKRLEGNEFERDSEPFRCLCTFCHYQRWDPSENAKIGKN
Sequence of hPHD D334A/D337A (human) (Q96T88 299-366 D334A/D337A): as the sequence (Q96T88 299-366 D334A/D337A) above
Sequence of PAF15 1-10 (Q15004 whole entry, looked up, tested part not stated): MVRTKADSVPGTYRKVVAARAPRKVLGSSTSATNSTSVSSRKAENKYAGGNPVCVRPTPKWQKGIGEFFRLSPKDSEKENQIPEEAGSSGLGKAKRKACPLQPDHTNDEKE
Sequence of PAF15 (Q15004 whole entry): as the sequence (Q15004 whole entry, looked up, tested part not stated) above

For the substance “human DPPA3, residues 81-118 (domain or fragment)”, in experiment [1], the Kd (commonly the equilibrium constant for the complex coming apart) was 114 µM and 91 µM and 139 µM. For PAF15 1-10 (from UniProt Q15004), the Kd in experiment [2] was 2.2 µM.

On to histone H3 1-15 (from UniProt P68431), for which, in experiment [3], the dissociation constant (Kd) was 1.7 µM. DPPA3 (from UniProt Q8QZY3): the equilibrium dissociation constant (Kd) in experiment [4] is 0.0277 µM. On to PAF15 (from UniProt Q15004), for which the Kd in experiment [5] is 3.52 µM. In the experiment with hPHD D334A/D337A (human), “human DPPA3, residues 81–118 (recombinant) (domain or fragment)” yielded an equilibrium dissociation constant (Kd) above 115 µM.
